The record followed here is PMC9039656.

This data set concerns the target T1, PAP1 R2R3-MYB domain (UniProt Q9FE25 1-178).
T1 sequence: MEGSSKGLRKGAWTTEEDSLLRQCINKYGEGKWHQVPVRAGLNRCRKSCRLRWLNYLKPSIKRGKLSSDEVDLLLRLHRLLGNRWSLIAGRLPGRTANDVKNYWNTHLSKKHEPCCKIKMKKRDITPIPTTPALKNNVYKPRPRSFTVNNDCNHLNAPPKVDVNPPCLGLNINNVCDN
The experiment in a line: EMSA.

B1: NtPMT2 MRE-like probe (dsDNA)
DNA 1: CCAACAACCGCGCCAACAACCGCGCCAACAACCGCG
DNA 2: CGCGGTTGTTGGCGCGGTTGTTGGCGCGGTTGTTGG
Take B1: the binding result is given as “no binding”.
